# Source: patent publication US20210054062A1 (NEURACLE SCIENCE, published 2021)
# How the values were obtained:
# FAM19A5-rabbit Fc [1] = target: T1, FAM19A5-rabbit Fc; assay: ELISA: FAM19A5-rFc captured on coated anti-rabbit Fc antibody, antibody at 2.8 to 2055 pM, anti-human kappa light chain-HRP, OD450. The table prints R2 of the fit as 0.999.
# T1 construct: also called FAM19A5-rFc
# Description: (§1) For the ELISA assay, the following protocol was used. Anti-rabbit Fc antibody (diluted to a concentration of 1 μg/mL in 50 mM carbonate buffer, pH 9.6) was used to coat the 96-well plates (100 μL/well) overnight at 4° C. Next, the plates were washed with the washing buffer (PBST: 0.05% Tween-20/PBS) for a total of five washes. The plates were then blocked for 1 hour at 37° C. with the blocking buffer (1% BSA/PBST) (150 μL/well) and washed again with the washing buffer. Then, 50 ng/mL of FAM19A5-rabbit Fc (also called FAM19A5-rFc) antigen diluted in blocking buffer was added to each of the wells. The plates were incubated for an additional hour at 37° C. After the incubation, the plates were washed again for a total of five washes with the washing buffer. The diluted anti-FAM19A5 antibodies in blocking buffer to different concentrations (2055 pM, 685 pM, 228.3 pM, 76.1 pM, 25.4 pM, 8.5 pM, 2.8 pM, 0 pM) were added to each of the wells, and the plates were incubated for 2 hours at 37° C. After the incubation, the plates were washed (total of five washes in the wash buffer) and then, diluted anti-human kappa light chain-HRP (1:10000 in blocking buffer) was added to the well (100 μL/well). […] This reaction was stopped using 100 μL of sulfuric acid (2N H₂SO₄), and the extent of color change was detected via absorption at 450 nm using a 96 well microplate reader (Molecular Device).
# FAM19A5-rabbit Fc [2] = target: T1, FAM19A5-rabbit Fc; assay: ELISA: FAM19A5-rFc captured on coated anti-rabbit Fc antibody, antibody at 2.8 to 2055 pM, anti-human kappa light chain-HRP, OD450. The table prints R2 of the fit as 1.000.
# Description: as §1
# T1 sequence (Q7Z5A7 44-132): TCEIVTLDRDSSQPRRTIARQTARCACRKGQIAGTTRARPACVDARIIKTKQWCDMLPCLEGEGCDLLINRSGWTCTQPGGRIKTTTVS
EC50 (FAM19A5-rabbit Fc [1]) [pM],EC50 (FAM19A5-rabbit Fc [2]) [pM],Binder
210,–,"Anti-FAM19A5 antibody (""S5-SG"") (antibody, V domains shown, The ELISA detected it with anti-human kappa light chain-HRP; also called deimmunized clone S5-SG; S5-2.GKNG antibody) VH: AVTLDESGGGLQTPGGALRLSCKASGFTFSSYQMGWVRQAPGKGLEWVSAINKGGSDTSYGSAVKGRATISRDNGQSTLYLQMNSLRAEDTAVYFCAKGSASYITAATIDAWGHGTEVIVSS VL: ALTQPSSVSANPGETARITCSGGASSGYGYGWYQQKPSSAPLTVIYKDSERPSDIPSRFSGSSSGSTHTLTISGVQAEDEAVYFCGNDDYSSDSGYVGVFGAGTTLTVL"
–,130,"Reference anti-FAM19A5 antibody (""1-65"") (antibody, V domains shown, The ELISA detected it with anti-human kappa light chain-HRP; also called 1-65 antibody; clone 1-65) VH: AVTLDESGGGLQTPGGALSLVCKASGFTFSSYQMGWVRQAPGKGLEWVGVINKSGSDTSYGSAVKGRATISRDNGQSTVRLQLNNLRAEDTGTYFCAKGSASYITAATIDAWGHGTEVIVSS VL: ALTQPSSVSANPGETVKITCSGGGSSGYGYGWYQQKSPSSAPLTVIYWNDKRPSDIPSRFSGSKSGSTHTLTITGVQAEDEAVYFCGNDDYSSDSGYVGVFGAGTTLTVL"
–,380,"Anti-FAM19A5 antibody (""SS01-13-s5"") (antibody, V domains shown, The ELISA detected it with anti-human kappa light chain-HRP; also called deimmunized clone 1-65; deimmunized 1-65 antibody) VH: AVTLDESGGGLQTPGGALRLSCKASGFTFSSYQMGWVRQAPGKGLEWVSAINKSGSDTSYGSAVKGRATISRDNGQSTLYLQMNSLRAEDTAVYFCAKGSASYITAATIDAWGHGTEVIVSS VL: ALTQPSSVSANPGETARITCSGGASSGYGYGWYQQKPSSAPLTVIYKDSERPSDIPSRFSGSSSGSTHTLTISGVQAEDEAVYFCGNDDYSSDSGYVGVFGAGTTLTVL"
